According to patent publication US20240076386:
Changes are numbered by the printed parent chain.

B1: optimized anti-E-selectin antibody 1282 (protein)
chain 1: EVQLVESGGGLVQPGGSLRLSCAASGYAIRSAYMHWVRQAPGKGLEWVARIDPANGNTIYVDSVEGRFTISADNAKNSAYLQMNSLRAEDTAVYYCAMDLYSTSEYWGQGTLVTVSSASTKGPSVFPLAPSSKSTSGGTAALGCLVKDYFPEPVTVSWNSGALTSGVHTFPAVLQSSGLYSLSSVVTVPSSSLGTQTYICNVNHKPSNTKVDKKVEPKSCDKTHTCPPCPAPEAAGAPSVFLFPPKPKDTLMISRTPEVTCVVVDVSHEDPEVKFNWYVDGVEVHNAKTKPREEQYNSTYRVVSVLTVLHQDWLNGKEYKCKVSNKALPAPIEKTISKAKGQPREPQVYTLPPSREEMTKNQVSLTCLVKGFYPSDIAVEWESNGQPENNYKTTPPVLDSDGSFFLYSKLTVDKSRWQQGNVFSCSVMHEALHNHYTQKSLSLSPG
chain 2: DIQMTQSPSSLSASVGDRVTITCKTSQNIERYLNWYQQKPGKAPKLLIYAASSLQSGVPSRFSGSGSGTDFTLTISSLQPEDFATYFCLQDNAWPLTFGQGTKVEIKRTVAAPSVFIFPPSDEQLKSGTASVVCLLNNFYPREAKVQWKVDNALQSGNSQESVTEQDSKDSTYSLSSTLTLSKADYEKHKVYACEVTHQGLSSPVTKSFNRGEC
B2: optimized anti-E-selectin antibody 1448 (protein)
chain 1: B1 chain 1 with E65K, G66E
chain 2: B1 chain 2
B3: optimized anti-E-selectin antibody 1444 (protein)
chain 1: B1 chain 1 with E65T
chain 2: B1 chain 2
B4: optimized anti-E-selectin antibody 1284 (protein)
chain 1: B1 chain 1 with D62E
chain 2: B1 chain 2

test: AC-SINS self-interaction

AC-SINS (wavelength of maximum absorbance relative to blank, nm), 1 nm:
B1, B2, B3, B4
